# Measured values taken from patent US20120219562A1.
# Experiments:
# [1] = molecular target: human interleukin 12 (p70 heterodimer of p35 and p40) (human) (UniProt P29459); assay: SPR (BIAcore), off-rate
# [2] = molecular target: human interleukin 12 (recombinant human IL-12, p70 heterodimer) (human) (UniProt P29459); assay: cell-based or functional assay
# human interleukin 12 (recombinant human IL-12, p70 heterodimer) (human), sequence (P29459 23-219, chain 1 of 2): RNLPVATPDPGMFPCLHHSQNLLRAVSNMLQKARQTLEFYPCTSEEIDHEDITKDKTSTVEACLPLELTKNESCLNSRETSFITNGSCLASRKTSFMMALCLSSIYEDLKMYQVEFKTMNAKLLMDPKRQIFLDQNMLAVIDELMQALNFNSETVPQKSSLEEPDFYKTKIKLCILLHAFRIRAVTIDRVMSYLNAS
# human interleukin 12 (recombinant human IL-12, p70 heterodimer) (human), sequence (P29460 23-328, chain 2 of 2, further chain): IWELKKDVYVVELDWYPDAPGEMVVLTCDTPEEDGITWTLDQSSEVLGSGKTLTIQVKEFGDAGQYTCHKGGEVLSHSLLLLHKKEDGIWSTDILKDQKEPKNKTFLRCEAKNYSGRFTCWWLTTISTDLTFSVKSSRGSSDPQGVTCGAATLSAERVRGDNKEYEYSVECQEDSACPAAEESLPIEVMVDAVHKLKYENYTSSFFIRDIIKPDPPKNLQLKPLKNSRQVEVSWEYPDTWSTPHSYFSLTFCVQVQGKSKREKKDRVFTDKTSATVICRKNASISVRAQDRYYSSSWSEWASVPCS
# human interleukin 12 (p70 heterodimer of p35 and p40) (human), sequence (P29459 23-219, chain 1 of 2): as the sequence (P29459 23-219, chain 1 of 2) above
# human interleukin 12 (p70 heterodimer of p35 and p40) (human), sequence (P29460 23-328, chain 2 of 2, further chain): as the sequence (P29460 23-328, chain 2 of 2, further chain) above
Substance,koff [1],PHA assay IC50 [2]
"SEQ ID NO: 429 (Y61, H at H97) (antibody)",0.00191 s⁻¹,
"SEQ ID NO: 462 (Y61, T at H102) (antibody)",0.000333 s⁻¹,
"SEQ ID NO: 445 (Y61, I at H98) (antibody)",0.000343 s⁻¹,
"SEQ ID NO: 452 (Y61, N at H101) (antibody)",0.00223 s⁻¹,
"SEQ ID NO: 457 (Y61, S at H102) (antibody)",0.000325 s⁻¹,
"SEQ ID NO: 436 (Y61, P at H97) (antibody)",0.003 s⁻¹,
"SEQ ID NO: 426 (Y61, D at H97) (antibody)",0.00202 s⁻¹,
Y61-L94N (antibody),,0.08 nM
"SEQ ID NO: 403 (Y61, F at H58) (antibody)",0.000794 s⁻¹,
"SEQ ID NO: 410 (Y61, A at H95) (antibody)",0.0015 s⁻¹,
"SEQ ID NO: 437 (Y61, W at H97) (antibody)",0.00239 s⁻¹,
"SEQ ID NO: 385 (Y61, Y at H56) (antibody)",0.00039 s⁻¹,
"SEQ ID NO: 434 (Y61, A at H97) (antibody)",0.00143 s⁻¹,
"SEQ ID NO: 433 (Y61, G at H97) (antibody)",0.00229 s⁻¹,
"SEQ ID NO: 400 (Y61, L at H58) (antibody)",0.00073 s⁻¹,
"SEQ ID NO: 409 (Y61, T at H95) (antibody)",0.00202 s⁻¹,
"SEQ ID NO: 389 (Y61, G at H56) (antibody)",0.000272 s⁻¹,
"SEQ ID NO: 469 (Y61, F at H102) (antibody)",0.000318 s⁻¹,
"SEQ ID NO: 388 (Y61, T at H56) (antibody)",0.000235 s⁻¹,
"SEQ ID NO: 438 (Y61, F at H97) (antibody)",0.0018 s⁻¹,
"SEQ ID NO: 463 (Y61, G at H102) (antibody)",0.000692 s⁻¹,
"SEQ ID NO: 425 (Y61, W at H96) (antibody)",0.00197 s⁻¹,
"SEQ ID NO: 451 (Y61, R at H101) (antibody)",0.0011 s⁻¹,
"SEQ ID NO: 411 (Y61, L at H95) (antibody)",0.00147 s⁻¹,

Substance,koff [1],PHA assay IC50 [2]
"SEQ ID NO: 441 (Y61, T at H98) (antibody)",0.000227 s⁻¹,
Y61-L94F (antibody),,0.06 nM
"SEQ ID NO: 386 (Y61, H at H56) (antibody)",0.00042 s⁻¹,
"SEQ ID NO: 417 (Y61, R at H96) (antibody)",0.000982 s⁻¹,
"SEQ ID NO: 398 (Y61, N at H58) (antibody)",0.000831 s⁻¹,
"SEQ ID NO: 459 (Y61, K at H102) (antibody)",0.000405 s⁻¹,
"SEQ ID NO: 448 (Y61, S at H101) (antibody)",0.000449 s⁻¹,
"SEQ ID NO: 450 (Y61, H at H101) (antibody)",0.00327 s⁻¹,
"SEQ ID NO: 405 (Y61, S at H95) (antibody)",0.00193 s⁻¹,
"SEQ ID NO: 413 (Y61, F at H95) (antibody)",0.00514 s⁻¹,
"SEQ ID NO: 401 (Y61, I at H58) (antibody)",0.000657 s⁻¹,
"SEQ ID NO: 391 (Y61, L at H56) (antibody)",0.000264 s⁻¹,
"SEQ ID NO: 399 (Y61, V at H58) (antibody)",0.000524 s⁻¹,
"SEQ ID NO: 440 (Y61, R at H98) (antibody)",0.00034 s⁻¹,
"SEQ ID NO: 415 (Y61, C at H96) (antibody)",0.000242 s⁻¹,
Y61 with L50→Y (antibody),0.000174 s⁻¹,
Y61 with H31S→E (antibody),0.000219 s⁻¹,
"SEQ ID NO: 407 (Y61, K at H95) (antibody)",0.00228 s⁻¹,
"SEQ ID NO: 467 (Y61, P at H102) (antibody)",0.00181 s⁻¹,
"SEQ ID NO: 435 (Y61, I at H97) (antibody)",0.00208 s⁻¹,
"SEQ ID NO: 394 (Y61, F at H56) (antibody)",0.000345 s⁻¹,
"SEQ ID NO: 443 (Y61, V at H98) (antibody)",0.000293 s⁻¹,
"SEQ ID NO: 421 (Y61, M at H96) (antibody)",0.00204 s⁻¹,
"SEQ ID NO: 465 (Y61, L at H102) (antibody)",0.000956 s⁻¹,

Substance,koff [1],PHA assay IC50 [2]
"SEQ ID NO: 442 (Y61, A at H98) (antibody)",0.000673 s⁻¹,
"SEQ ID NO: 404 (Y61, E at H95) (antibody)",0.00231 s⁻¹,
"SEQ ID NO: 456 (Y61, I at H101) (antibody)",0.00162 s⁻¹,
"SEQ ID NO: 431 (Y61, N at H97) (antibody)",0.00221 s⁻¹,
"SEQ ID NO: 423 (Y61, I at H96) (antibody)",0.00208 s⁻¹,
"SEQ ID NO: 402 (Y61, P at H58) (antibody)",0.000628 s⁻¹,
"SEQ ID NO: 428 (Y61, Y at H97) (antibody)",0.00273 s⁻¹,
"SEQ ID NO: 460 (Y61, R at H102) (antibody)",0.000575 s⁻¹,
"SEQ ID NO: 466 (Y61, I at H102) (antibody)",0.000996 s⁻¹,
"SEQ ID NO: 396 (Y61, S at H58) (antibody)",0.000941 s⁻¹,
"SEQ ID NO: 412 (Y61, P at H95) (antibody)",0.00471 s⁻¹,
"SEQ ID NO: 390 (Y61, M at H56) (antibody)",0.000383 s⁻¹,
"SEQ ID NO: 464 (Y61, A at H102) (antibody)",0.000382 s⁻¹,
"SEQ ID NO: 458 (Y61, H at H102) (antibody)",0.00018 s⁻¹,
"SEQ ID NO: 392 (Y61, I at H56) (antibody)",0.000169 s⁻¹,
"SEQ ID NO: 468 (Y61, W at H102) (antibody)",0.000235 s⁻¹,
"SEQ ID NO: 424 (Y61, P at H96) (antibody)",0.00129 s⁻¹,
"SEQ ID NO: 414 (Y61, D at H96) (antibody)",0.00224 s⁻¹,
"SEQ ID NO: 395 (Y61, E at H58) (antibody)",0.000416 s⁻¹,
"SEQ ID NO: 455 (Y61, V at H101) (antibody)",0.00163 s⁻¹,
"SEQ ID NO: 416 (Y61, H at H96) (antibody)",0.000237 s⁻¹,
"SEQ ID NO: 453 (Y61, G at H101) (antibody)",0.00375 s⁻¹,
"SEQ ID NO: 454 (Y61, A at H101) (antibody)",0.00106 s⁻¹,
"SEQ ID NO: 393 (Y61, P at H56) (antibody)",0.000299 s⁻¹,
